{"source": "paper PMC4856084", "about": "“The SEB-1 Transcription Factor Binds to the STRE Motif in Neurospora crassa and Regulates a Variety of Cellular Processes Including the Stress Response and Reserve Carbohydrate Metabolism”", "target": "GST-SEB-1 (Neurospora crassa, UniProt Q7SH58 1-575)", "assay": "competition", "conditions": "protein: recombinant; tags: N-terminal GST (pGEX-4T1); blunt", "data": [{"binder": "STRE1 oligonucleotide (18 bp) (dsDNA) DNA 1: GGGATCCCCCTTGAATAC DNA 2: GTATTCAAGGGGGATCCC", "values": [{"measurement": "binding result", "result": "binds"}]}]}
